Laboratory results reported in publication PMC2753473.
Where two headings read alike, the source gives them in different places.

What was measured:
[1] = target: photoactivated rhodopsin (Rho*, Meta II) (bovine) (UniProt P02699); assay: SEC
[2] = target: photoactivated rhodopsin (Rho*, Meta II) (bovine) (UniProt P02699); assay: SEC; remark: listed apart in the source

photoactivated rhodopsin (Rho*, Meta II) (bovine), sequence (P02699 whole entry): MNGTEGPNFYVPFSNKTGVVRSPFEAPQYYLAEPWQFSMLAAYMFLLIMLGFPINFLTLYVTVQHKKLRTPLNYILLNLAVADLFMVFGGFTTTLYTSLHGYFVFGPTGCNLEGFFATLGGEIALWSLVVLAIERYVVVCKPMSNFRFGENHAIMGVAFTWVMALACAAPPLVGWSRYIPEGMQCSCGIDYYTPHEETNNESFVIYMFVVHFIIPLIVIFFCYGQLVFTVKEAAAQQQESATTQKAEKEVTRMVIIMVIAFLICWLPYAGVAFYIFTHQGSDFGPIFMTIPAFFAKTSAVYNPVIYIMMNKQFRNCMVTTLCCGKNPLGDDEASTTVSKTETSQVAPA

With “transducin (Gt), rod cell-specific heterotrimeric G protein (from UniProt P04695 1-350; P62871 1-340; P02698 1-74) (complex)” the stoichiometry N (Rho*:Gt molar ratio) [1] was 1 and the stoichiometry N (Rho*:Gt molar ratio) [2] was 1.
